This is an account of results in patent publication US20220025023A1 (AC IMMUNE, published 2022).

For one assay, the target named is T1, TDP-211 peptide (human).
T1 construct: 8-mer of human TDP-43; same ELISA method as for the biotinylated 15-mers
T1 peptide: FSQYGDVM
Kind of assay: indirect ELISA, 8-mer peptide library. The method, boiled down:
(§1)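 Hybridoma supernatant antibodies were tested by indirect ELISA on streptavidin-captured biotinylated 8-mer peptides with 7 aa overlap spanning human TDP-43 aa 210–231. Antibody binding was 2 h at 37 °C, then AP-conjugated anti-mouse IgG (1/1000, 1 h, 37 °C) was added. Read-out was pNPP absorbance at 405 nm.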

The target of the next assay is T2, TDP-213 peptide (human).
T2 construct: 8-mer of human TDP-43; same ELISA method as for the biotinylated 15-mers
T2 peptide: QYGDVMDV
Kind of assay: indirect ELISA, 8-mer peptide library. The method, boiled down: as §1
For orientation: An ELISA detects its analyte on a solid surface through an enzyme-linked reagent.

A further assay has as its target T3, TDP-216 peptide (human).
T3 construct: 8-mer of human TDP-43; same ELISA method as for the biotinylated 15-mers
T3 peptide: DVMDVFIP
Kind of assay: indirect ELISA, 8-mer peptide library. The method in brief: as §1

The target of another assay is T4, TDP-217 peptide (human).
T4 construct: 8-mer of human TDP-43; same ELISA method as for the biotinylated 15-mers
T4 peptide: VMDVFIPK
Kind of assay: indirect ELISA, 8-mer peptide library. The method in brief:
as §1

The next assay has as its target T5, TDP-220 peptide (human).
T5 construct: 8-mer of human TDP-43; same ELISA method as for the biotinylated 15-mers
T5 peptide: VFIPKPFR
As to the kind of experiment: indirect ELISA, 8-mer peptide library. The method, boiled down: as §1

Another assay addresses T6, TDP-222 peptide (human).
T6 construct: 8-mer of human TDP-43; same ELISA method as for the biotinylated 15-mers
T6 peptide: IPKPFRAF
As to the kind of experiment: indirect ELISA, 8-mer peptide library. The method in brief:
as §1

In another assay the target is T7, TDP-215 peptide (human).
T7 construct: same ELISA method as for the biotinylated 15-mers
T7 peptide: GDVMDVFI
Kind of assay: indirect ELISA, 8-mer peptide library, OD 405 nm. The method in brief: as §1

The next assay has as its target T8, TDP-3 peptide (human).
T8 construct: Irrelevant control peptide; conjugated to Luminex beads in the assay; also called TDP-43 aa 310-370; irrelevant target
T8 peptide: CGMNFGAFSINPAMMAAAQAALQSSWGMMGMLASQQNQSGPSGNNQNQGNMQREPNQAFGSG
As to the kind of experiment: Luminex bead assay, TDP-3 peptide beads (irrelevant target).

In assay [1] the target is T9, recombinant human full-length TDP-43 (human, UniProt Q13148 1-414).
T9 construct: Recombinant full-length protein; also called FL TDP-43; recFL TDP-43
Kind of assay: Luminex bead assay, antibody serial dilution, FL TDP-43 beads.

In another assay the target is T10, TDP-1 peptide (human).
T10 construct: Immunogen peptide; conjugated to Luminex beads in the assay; also called TDP-43 aa 212-272
T10 peptide: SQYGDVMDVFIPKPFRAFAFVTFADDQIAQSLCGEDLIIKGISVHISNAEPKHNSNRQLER
Kind of assay: Luminex bead assay, antibody serial dilution, TDP-1 peptide beads.

Another assay addresses T11, BSA (bovine, UniProt P02769).
T11 construct: not specified; also called bovine serum albumin
Kind of assay: indirect ELISA, control coat in the 15-mer series, hybridoma supernatant.

Assay [2] concerns the target T9, recombinant human full-length TDP-43. Kind of assay: SPR avidity (Biacore T200), TDP-43 monomer immobilised, antibody as analyte, 1:1 model. On the procedure: (§2) Avidity measurements were performed on an SPR instrument (Biacore T200, GE Healthcare Life Sciences) using CM5 Series S sensor chips. Recombinant human FL TDP-43 monomers or aggregated recombinant human FL TDP-43 was immobilized on a CM5 chip using amine coupling, injecting at a flow rate of 5 μl/min for 420 seconds. Conditions were optimized so that less than 200 RU protein was immobilized. Binding of the antibodies and the control antibody (2E2-D3) were obtained by injecting at: 1.37, 4.11, 12.33, 37, 111, and 333 nM in 1×PBS P+ at a flow rate of 50 μl/min for 90 s contact time and 600 s dissociation phase, with three regeneration cycles of the ligand surface by 10 mM Glycine-HCl (pH 1.7). Kinetics were analyzed using a 1:1 fitting model (see FIG. 8).
For orientation: In SPR one partner is held on a chip, and binding of the other changes the refractive index at the surface.

Assay [3] addresses T12, aggregated recombinant human FL TDP-43 (human, UniProt Q13148 1-414).
T12 construct: also called TDP-43 aggregates
As to the kind of experiment: SPR avidity (Biacore T200), aggregated TDP-43 immobilised, antibody as analyte, 1:1 model. On the procedure: as §2

A further assay deals with T13, TP-23 (also: biotinylated, site not given here).
T13 construct: also called TP-23 peptide
T13 peptide: TEDMTEDELREFFSQ
As to the kind of experiment: indirect ELISA, biotinylated 15-mer on streptavidin plate, hybridoma supernatant. The method, boiled down: (§3)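 Biotinylated 15-mer peptides (5 μg/mL) spanning human TDP-43 aa 199-285 captured on streptavidin plates, blocked with 1% BSA 1 h 37° C. Hybridoma supernatant added at indicated dilutions, 2 h 37° C; AP anti-mouse IgG 1/1000, 1 h 37° C; pNPP read at 405 nm.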

In another assay the target is T14, TP-26 (also: biotinylated, site not given here).
T14 construct: also called TP-26 peptide
T14 peptide: FRAFAFVTFADDQIA
Described as above. The method in brief: as §3

Another assay has as its target T15, TP-27 (also: biotinylated, site not given here).
T15 construct: also called TP-27 peptide
T15 peptide: ADDQIAQSLCGEDLI
The assay is described as above. The method, boiled down:
as §3

For a further assay, the target named is T16, TP-28 (also: biotinylated, site not given here).
T16 construct: also called TP-28 peptide
T16 peptide: CGEDLIIKGISVHIS
Described as above. The method in brief:
as §3

A further assay concerns the target T17, TP-29 (also: biotinylated, site not given here).
T17 construct: also called TP-29 peptide
T17 peptide: ISVHISNAEPKHNSN
Described as above. The method in brief: as §3

The next assay concerns the target T18, TP-30 (also: biotinylated, site not given here).
T18 construct: also called TP-30 peptide
T18 peptide: PKHNSNRQLERSGRF
The description is as above. The method in brief:
as §3

The target of a further assay is T19, TP-31 (also: biotinylated, site not given here).
T19 construct: also called TP-31 peptide
T19 peptide: ERSGRFGGNPGGFGN
Described as above. The method, boiled down:
as §3

Where no end group is shown, it is not given here.

T9 sequence (Q13148 whole entry): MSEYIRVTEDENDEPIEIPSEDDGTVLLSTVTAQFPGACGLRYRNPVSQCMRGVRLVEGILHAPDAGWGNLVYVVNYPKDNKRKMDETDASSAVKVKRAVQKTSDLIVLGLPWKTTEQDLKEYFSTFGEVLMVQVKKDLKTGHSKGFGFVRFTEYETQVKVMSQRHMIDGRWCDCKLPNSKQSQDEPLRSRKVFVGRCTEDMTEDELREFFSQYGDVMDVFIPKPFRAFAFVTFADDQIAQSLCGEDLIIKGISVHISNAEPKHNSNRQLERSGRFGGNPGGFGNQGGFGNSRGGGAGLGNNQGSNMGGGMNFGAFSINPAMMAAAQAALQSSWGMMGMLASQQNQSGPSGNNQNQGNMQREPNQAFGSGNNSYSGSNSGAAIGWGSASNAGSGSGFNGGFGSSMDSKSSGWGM
T12 sequence (Q13148 whole entry): as above
T11 sequence (P02769 25-607 limits assumed): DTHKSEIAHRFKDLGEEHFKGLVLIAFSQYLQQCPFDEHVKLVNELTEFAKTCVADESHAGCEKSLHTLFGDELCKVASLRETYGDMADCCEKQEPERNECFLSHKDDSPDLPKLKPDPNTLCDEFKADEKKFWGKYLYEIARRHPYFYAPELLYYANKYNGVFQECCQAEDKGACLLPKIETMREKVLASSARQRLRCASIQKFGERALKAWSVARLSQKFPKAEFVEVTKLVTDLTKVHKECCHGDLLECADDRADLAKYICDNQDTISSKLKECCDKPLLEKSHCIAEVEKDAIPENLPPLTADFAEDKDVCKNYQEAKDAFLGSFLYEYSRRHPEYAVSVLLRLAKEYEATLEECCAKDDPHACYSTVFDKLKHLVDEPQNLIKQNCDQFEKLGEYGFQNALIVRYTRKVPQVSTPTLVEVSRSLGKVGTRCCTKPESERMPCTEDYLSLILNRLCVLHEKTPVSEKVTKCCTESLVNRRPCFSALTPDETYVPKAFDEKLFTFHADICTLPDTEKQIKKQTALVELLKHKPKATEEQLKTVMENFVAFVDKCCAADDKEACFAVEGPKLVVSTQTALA

B1: ACI-7062-406E3-Ab2 (antibody, IgG2a, V domains shown)
VH: QVTLKESGPAILQPSQTLSLTCSFSGFSLTTYGIGVGWIRQPSGKGLEWLAHIWWNDNKYYNTALKSRLTVSKDTSNNQVFLKIASVDTADTATYYCARVYGNLYYFAYWGQGTTLTVSS
VL: DVLMTQTPLSLPVSLGDRASISCRSSQSIVHRSGNTYLEWYLQKPGQSPKLLIYKVSNRFSGVPDRFSGSGSGTDFTLKISRVEAEDLGVYYCFQGSHVPTFGAGTKLELKR
notes: also called 406E3G10; clone 6
As to B1, the binding result with TDP-211 peptide, with TDP-213 peptide, in the assay with TDP-216 peptide, with TDP-217 peptide, in the assay with TDP-220 peptide and with TDP-222 peptide was “no binding” each time. Also, the binding result with TDP-215 peptide is listed as “binds”; with TDP-3 peptide, “no binding”; with BSA, “no binding”; with TP-23, “no binding”; with TP-26, “no binding”; with TP-27, “no binding”. For the same molecule, the binding result in the assay with TP-28, with TP-29, with TP-30 and with TP-31 was “no binding” throughout. For the same molecule, the 50% effective concentration (EC50) in assay [1] is 0.01 nM; with TDP-1 peptide, under 0.01 nM. For the same molecule, the Kd in [2] stood at 0.3 nM; in [3] it was 0.4 nM.

What is called EC50 is the midpoint of the concentration-response curve.
